Laboratory results taken from patent US20220380430A1 (WORCESTER POLYTECHNIC INSTITUTE, published 2022).
No end group written: not given here.

Columns and labels:
NPR-10B = NPR-10B (C. elegans); experiment: cell-based or functional assay
FRPR-16 = FRPR-16 (C. elegans); experiment: cell-based or functional assay

| Binder | EC50 of receptor activation (aequorin calcium luminescence, transfected CHO-K1/Galpha16 cells) (NPR-10B) [nM] | EC50 of receptor activation (aequorin calcium luminescence, transfected CHO-K1/Galpha16 cells) (FRPR-16) [nM] |
| --- | --- | --- |
| TPLGTMRF-NH2 [FLP-3-2 (TPLGTMRFamide)] | 366 | 31.7 |
| ASEDALFGTMRF-NH2 [FLP-3-5 (ASEDALFGTMRFamide)] | 1100 | 72.1 |
| SAEPFGTMRF-NH2 [FLP-3-7 (SAEPFGTMRFamide)] | 439 | 39.5 |
| SPLGTMRF-NH2 [FLP-3-1 (SPLGTMRFamide)] | 262 | 7.4 |
| NPENDTPFGTMRF-NH2 [FLP-3-9 (NPENDTPFGTMRFamide)] | 760 | 88.3 |

The remaining lines, values ahead:

| EC50 of receptor activation (aequorin calcium luminescence, transfected CHO-K1/Galpha16 cells) (NPR-10B) [nM] | EC50 of receptor activation (aequorin calcium luminescence, transfected CHO-K1/Galpha16 cells) (FRPR-16) [nM] | Binder |
| --- | --- | --- |
| 427 | 10.7 | NPLGTMRF-NH2 [FLP-3-4 (NPLGTMRFamide)] |
| 867 | 288 | EAEEPLGTMRF-NH2 [FLP-3-3 (EAEEPLGTMRFamide)] |
| – | 1600 | SADDSAPFGTMRF-NH2 [FLP-3-8 (SADDSAPFGTMRFamide)] |
